Results published in paper PMC6408234.

Key:
[1] = target: 9C-HLA-A2 (NY-ESO-1 157-165 peptide … on HLA-A*02:01 with human β2m); assay: biomembrane force probe
[2] = target: C-C-locked R4-MHC (disulfide-bond-locked MHC mutant) (mouse | human); assay: biomembrane force probe

peak bond lifetime (at ~10 pN force) [1] [s] | fold reduction of the optimal bond lifetime against R4-MHC [2] [fold] | Substance
1 |  | 1G4 TCR
 | 2 | 2C TCR (wild type)
